assay: yeast display, Sf9 membrane polyspecificity reagent, FACS + sequencing; frameworks hold sequencing errors
Procedure, shortened: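 A nanobody's polyreactivity label depends on the gate it was sorted from. Yeast display cells were stained with 10% biotinylated, detergent-solubilized Sf9 membrane reagent for 1 hour at 4 °C, enriched on streptavidin microbeads and sorted by FACS. The low and high (top ~1%) gates were set on anti-HA fluorescence for expression and streptavidin fluorescence for reagent binding.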

Sequence | polyreactivity (PSR sort gate)
QVQLVESGGGLVQAGGSLRLSCAASGIIFSLYAMGWYRQAPGKERELVAAISASDGSTYYAVSVKGRFTISRDNAKNTVYLQMNSLKPEDTAVYYCAADSRPTQEYDYWGQGTQVTVSS | low polyreactivity
QVQLVESGGGLVQAGGSLRLSCAASGIIFSLYVMGWYRQAPGKERELVAAIRSGGSTYYADSVKGRFTISRDNAKNTVYLQMNSLKPEDTAGDYCAARVRSGTGVGFDYWGQGTQVTVSS | high polyreactivity
QVQLVESGGGLVQAGGSLRLSCAASGIIFSNYAMGWYRQAPGKERELVAAITRSGGRTYYADSVKGRFTISRDNAKNTVYLQMNSLKPEDTAVYYCAATGRSGVLSSYYYWGQGTQVTVSS | high polyreactivity
QVQLVESGGGLVQAGGSLRLSCAASGIIFSPNAMGWYRQAPGKEMELVAGISSGGSTYYADSVKGRFTISRDNAKNTVYFQMNSLKPEDTAVYYCNRGWAHSNAKFDYWGQGTQVTVSS | high polyreactivity
QVQLVESGGGLVQAGGSLRLSCAASGIIFSPNAMGWYRQAPGKERELVAGISSGGSTYYADSVKGRFTLSRDNAKNTVYLQMNSLKPEDTAVYYCAVRSRIFGSWYGYGYWGQGTQVTVSS | high polyreactivity
QVQLVESGGGLVQAGGSLRLSCAASGIIFSQYAMGWYRQAPGKERELVATITSRGASTYYADSVKGRFTISRDNAKNTVYLQMNSLKPEDTAVYYCAATVRRRYERYNYWGQGTQVTVSS | high polyreactivity
QVQLVESGGGLVQAGGSLRLSCAASGIIFSRYAMGWYRQAPGKERELDAAISSRGTSTYYADSVKGRFTISRDNAKNTVYLQMNSLKPEDTAVYYCNAVSRPVRHKSTYDYWGQVTQVTVSS | high polyreactivity
QVQLVESGGGLVQAGGSLRLSCAASGIIFSRYAMGWYRQAPGKERELVAVISSSGGRTYYADSVKGRFTISRDNAKNTVYLQMNSLKPEDTAVYYCAAYTRTGSHLRAYYYWGQGTQVTVSS | high polyreactivity
QVQLVESGGGLVQAGGSLRLSCAASGIIFSSYAMGWYRQAPGKERELVADISYTGGSTYYADSVKGRFTISRDNAKNTVYLQMNSLKPEDTAVYYCAAGVYLHYSVDYWGQGTQVTVSS | low polyreactivity
QVQLVESGGGLVQAGGSLRLSCAASGIIFSSYVMGWYRKATGKERELVAAISSRGVSTYYADSVKGRFTISRDNAKNTVYLQMNSLKPEDTAVYYCNAKDKQGRKQFKLCAGYYLGQGTQVTVSS | high polyreactivity
QVQLVESGGGLVQAGGSLRLSCAASGIIFSVYAMGWYRQAPGKERELVAAITWSGSRTYYADSVKGRFTISRDNAKNTVYLQMNSLKPEDTAVYYCATVFRGFVEYEYWGQGTQVTVSS | low polyreactivity
QVQLVESGGGLVQAGGSLRLSCAASGIIFSWYDMGWYRQAPGKERELVAAISYRGSTNYADSVKGRFTISLDNAKNTVYLQMNSLKPEDTAVYYCNGPRRQYEYDYWGQGTQVTVSS | high polyreactivity
QVQLVESGGGLVQAGGSLRLSCAASGIIFSYYAMGWYRQAPGKERELVADISSDGSTNYADSVKGRFTISRDNAKNTVYLQMNSLKPEDTAVYYCAAGYVHYGWFELDYWGQGTQVTVSS | low polyreactivity
QVQLVESGGGLVQAGGSLRLSCAASGIIFSYYVMGWYRQAPGKERELVAAISRSGAITYYADSVKGRFTISRDNAKNTVYLQMNSLKPEDTSVYYCAAELVPYSYHLRLDYWGQGTQVTVSS | high polyreactivity
QVQLVESGGGLVQAGGSLRLSCAASGIIFTKYAMGWYRQAPGTERELVAAITSGGRTNYADSVKGRFTISRDNAKNTDYLQMNSLKPEDTAVYYCAARYPSRDLLRRYKYWGQGTQVTVSS | high polyreactivity
QVQLVESGGGLVQAGGSLRLSCAASGIIFTWYAMGWYRQAPGKERELVAAISGSGDITYYADSVKGRFTISRDNAKNTVFLQMNSLKPEDTAVYYCAADPWTYWEDYDYWGQGTQVTVSS | low polyreactivity
QVQLVESGGGLVQAGGSLRLSCAASGIIFTYAIGWYRQAPGKERELVAAIDWRGGRTYYADSVKGRFTISRDNAKNTVYLHMNSLKREDTAVYYCGARLGGGTYYWGQGTQVTVSS | high polyreactivity
QVQLVESGGGLVQAGGSLRLSCAASGIIFTYYAMGWYRQAPGKERELVAGISSSGGITYADSVKGRFTISRDNAKNTVYLQMNSLKPEDTAVYYCAAESYGRSETEDDYWGQGTQVTVSS | low polyreactivity
QVQLVESGGGLVQAGGSLRLSCAASGIIFTYYAMGWYTQAPGKERELVAAISSRGDSTYYADSVKGRFTISRDNAKNTVYLQMNSLKPEDTAVYYCNRYLSRPLRAMYYWGLGTQVTVSS | high polyreactivity
QVQLVESGGGLVQAGGSLRLSCAASGIIFVDNDMGWYRQAPGKERELVADISDSGGSTNYADSVKGRFTISRDNAKNTVYLQMNSLKPEDTAVYYCAADSADPTEYDYWGQGTQVSVSS | low polyreactivity
QVQLVESGGGLVQAGGSLRLSCAASGIIFVDNVMGWYIQAPGKERELVAAIDYSGGSTYYADSVKGRFTISRDNAKNSVYLQMNSLKPEDTAVYYCAATDPRRRVRYGYWGQGTQVTVSS | low polyreactivity
QVQLVESGGGLVQAGGSLRLSCAASGIIFVFYVMGWYRQAPGKERELVAAISGGGSTYYADSVKGRFTISRDNAKNTVYLQMNSLKPEDTAVYYCNADYDGGYYGDLSLYDYWGQGTQVTVSS | low polyreactivity

Sequence | polyreactivity (PSR sort gate)
QVQLVESGGGLVQAGGSLRLSCAASGIIFVGYAMGWYRQAPGKERELVAGINCGGSTNYADSVKGRFTISRDNAKNTVYFQMNSLKPEDTAVYYCAAYPFDYYGYDYWGLGTQVTVSS | low polyreactivity
QVQLVESGGGLVQAGGSLRLSCAASGIIFVHYALGWYRQAPGKEWQLVAAITSGGSTKYADSVKGRFTISRDNAKNTVYLQMNSLKPEDTAVYYCAAGHYVYWYRYQLGGYNYWGIGTQVTVSS | high polyreactivity
QVQLVESGGGLVQAGGSLRLSCAASGIIFVIYAMVWYRQAPGKERELVAAISSSGGSTYYADSVKGRFTISRDNAKNTVYLLMNSLKPEDTAVYYCAVALSHYFGGYGYWGQGTQLTVSS | low polyreactivity
QVQLVESGGGLVQAGGSLRLSCAASGIIFVKNAMGWYRQAPGKERELVASISGSGGRTYYADSVKGRFTISRDNAKNTVYLQMKSLKPEDTAVYYCNTLLAPHARKARRHDYWGQGTQVTVSS | low polyreactivity
QVQLVESGGGLVQAGGSLRLSCAASGIIFVPNAMGWSRHPPGKERELVAAITGRGVSTYYADSVKGRFTISRDTAKKTVYLQMNSLKPEDTAVYYCAATLFSYSGGTHDYWGQGTQVTVSS | high polyreactivity
QVQLVESGGGLVQAGGSLRLSCAASGIIFVRYAMGWYRQAPGKERELVAAISWSGGSTYYADSVKGRFTISRDNAKNTVYLQMNSLKPEDTAVYYCAADSHRTRGDARYYYWGQGTQVTVSS | high polyreactivity
QVQLVESGGGLVQAGGSLRLSCAASGIIFVWYAMGWYRQAPGKERELVAAIRSGGITNYADSVKGRFTISRDNAKNTVYLQMNSLKPEDTAVYYCDAPYRTDTGDDYWGQGTQVTVSS | low polyreactivity
QVQLVESGGGLVQAGGSLRLSCAASGIIFVYYAMGWYRQAPGKERELVAAISYSGGRTYYADSVKGRFTISRDNAKNTVYLQMNSLKPEDTAVYYCAAVDRRGYRYALDYWGQGTQVTVSS | high polyreactivity
QVQLVESGGGLVQAGGSLRLSCAASGIIFVYYTMGWYRQAPGKERELVAAITSGGSTYYADSVKGRFTISRDNAKNTVYVQMNSLKPEDTAVYYCAAVGRPPYAGDRGYWGQGTQVTVSS | high polyreactivity
QVQLVESGGGLVQAGGSLRLSCAASGIIFWFYAMGWYRQAPGKERELVAAISGDGDSTYYADSVKGRFTISRDNAKNTVYLQMNSLKPEDTAVYYCAAEWDPVFATDEDDYWGQGTQVTVSS | low polyreactivity
QVQLVESGGGLVQAGGSLRLSCAASGIIFWGYAMGWYRQAPGKERELVAAISRGGSTYYADSVKGRFTISRDNAKNTVYLQMNSLKPEDTAVYYCAATGVRTWALDYWGQGTQVTVSS | high polyreactivity
QVQLVESGGGLVQAGGSLRLSCAASGIIFWRYAMGWYRQAPGKERELVASISWSGGSTSYADSVKGRFTISRDNAKNTVYLQMNSLKPEDTAVYYCAAVFYYRRRYYYWGQGTQVTVSS | high polyreactivity
QVQLVESGGGLVQAGGSLRLSCAASGIIFWRYAMGWYRQAPGKERELVATITSGGSTDYADSVKGRFTISRDNAKNTVYLQMNSLKPEDTEVYYCAALGYATGYWRYYYWGQGTQVTVSS | low polyreactivity
QVQLVESGGGLVQAGGSLRLSCAASGIIFWTYTMGWYRQAPGKERELVAAISSGGSTKYADSVKGRFTISRDNAKNTVYLQMNSLKPEDTAVYYCAAYSAWYGYDYWGQGTQVTVSS | low polyreactivity
QVQLVESGGGLVQAGGSLRLSCAASGIIFWTYTMGWYRQAPGKERELVAAISSGGSTNYADSVKGRFTISRDNAKNTVYLQMNSLKPEDTAVYYCAKRRQYQRSYNYWGQGTQVTVSS | low polyreactivity
QVQLVESGGGLVQAGGSLRLSCAASGIIFWTYTMGWYRQAPGKERELVAAISSGGSTTYADSVKGRFTISRDNSMNTVFLQMNWLKPEDTAVYYCAKRRQYQRSYNYWGKGTQVTVSS | low polyreactivity
QVQLVESGGGLVQAGGSLRLSCAASGIIFWVNAMGWYRQAPGKERELVAAIRSDGSTKYADSVKGRFTISRDNAKNTVYLQMNSLKPEDTALYYCAKRDYSYPWFRDYYYWGQGTQVTVSS | low polyreactivity
QVQLVESGGGLVQAGGSLRLSCAASGIIFWYNAMGWYRQAPGKERELVAAISWSGGRTYYADSVKGRFTISRDNAKNTVYLQMNSLKPEDTAVYYCAAKVPRSSRSYGYWGQGTQVTVSS | high polyreactivity
QVQLVESGGGLVQAGGSLRLSCAASGIIFWYNAMGWYRQAPWKERELVASISTGGRTYYADSVKGRFTISRDNAKNTVYLQMNSLKPEDTAVYYCAAASRVGFLYYYWGQGTQVTVSS | low polyreactivity
QVQLVESGGGLVQAGGSLRLSCAASGIIFWYYAMGWYRQAPGKERELVAAISQSGGRTYYADSVKGRFTISRDNAKNTVYLQMNSLKPEDTAVYYCAAEPYTGYGYWGQGTQVTVSS | high polyreactivity
QVQLVESGGGLVQAGGSLRLSCAASGIIFWYYAMGWYRQAPGKERELVASISGTGGTTYYADSVKGRFTISRDNAKNTVYLQMNSLKPEDTAVYYCAALSGQHDYDYWGQVTQVTVSS | low polyreactivity

Source: the nanobody polyreactivity screen of Harvey et al. (2022)
